From patent publication US20230212266A1 (FRED HUTCHINSON CANCER CENTER, published 2023)
Positions count from the first letter of the chain named. Where two headings read alike, the source gives them in different places.

Legend:
Assay in all cases: BLI, mAb on anti-human Fc probe, antigen in solution
[1] = target: T1, SARS-CoV-2 receptor binding domain (RBD) (SARS-CoV-2, UniProt P0DTC2 319-591)
[2] = target: T1, SARS-CoV-2 receptor binding domain (RBD); remark: listed apart in the source
[3] = target: T1, SARS-CoV-2 receptor binding domain (RBD); remark: listed apart in the source
[4] = target: T1, SARS-CoV-2 receptor binding domain (RBD); remark: listed apart in the source
[5] = target: T1, SARS-CoV-2 receptor binding domain (RBD); remark: listed apart in the source
[6] = target: T1, SARS-CoV-2 receptor binding domain (RBD); remark: listed apart in the source
[7] = target: T1, SARS-CoV-2 receptor binding domain (RBD); remark: listed apart in the source
[8] = target: T1, SARS-CoV-2 receptor binding domain (RBD); remark: listed apart in the source
[9] = target: T1, SARS-CoV-2 receptor binding domain (RBD); remark: listed apart in the source
[10] = target: T1, SARS-CoV-2 receptor binding domain (RBD); remark: listed apart in the source
[11] = target: T1, SARS-CoV-2 receptor binding domain (RBD); remark: listed apart in the source
[12] = target: T1, SARS-CoV-2 receptor binding domain (RBD); remark: listed apart in the source
[13] = target: T1, SARS-CoV-2 receptor binding domain (RBD); remark: listed apart in the source
[14] = target: T1, SARS-CoV-2 receptor binding domain (RBD); remark: listed apart in the source
[15] = target: T1, SARS-CoV-2 receptor binding domain (RBD); remark: listed apart in the source
[16] = target: T1, SARS-CoV-2 receptor binding domain (RBD); remark: listed apart in the source
[17] = target: T1, SARS-CoV-2 receptor binding domain (RBD); remark: listed apart in the source
[18] = target: T1, SARS-CoV-2 receptor binding domain (RBD); remark: listed apart in the source

B1: CV2-4 (antibody, V domains shown)
VH: QVQLVQSGAEVKKPGSSVKVSCKASGGTFSSYAITWVRQAPGQGLEWMGGIIPIFGTANYAQKFQGRVTITADESTSTAYMELSSLRSEDTAVYYCVRVALYDSSGYSPDYWGQGTLVTVSS
VL: EIVLTQSPATLSLSPGERATLSCRASQSVSNFLAWYQQKPGQAPRLLIYDASNRATGIPARFSGSGSGTDFTLTISSLEPEDFAVYYCQHRSNWPPGITFGQGTRLEIK
notes: expressed as IgG
binding result [1]: no binding

B2: CV32 (antibody, V domains shown)
VH: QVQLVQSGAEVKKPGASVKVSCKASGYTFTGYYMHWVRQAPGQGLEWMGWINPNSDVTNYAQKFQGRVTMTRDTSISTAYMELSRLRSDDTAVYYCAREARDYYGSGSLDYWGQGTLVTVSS
VL: QSVLTQPPSVSAAPGQKVTISCSGSSSNIGNNYVSWYQQLPGTAPKLLIYDNNKRPSGIPDRFSGSKSGTSATLGITGLQTGDEADYYCGTWDSSLSAVVFGGGTKLTVL
notes: expressed as IgG
binding result [2]: no binding

B3: CV33 (antibody, V domains shown)
VH: QVQLVQSGAEVKKPGASVKVSCKASGYTFTSYDISWVRQAPGQGLEWMGWISAYNGNTNYAQKLQGRVTMTTDTSTSTAYMELRSLRSDDTAVYYCARDSVAGIYYYYGMDVWGQGTTVTVSS
VL: QSVLTQPPSVSGAPGQRVTISCTGSSSNIGAGYDVHWYQQLPGTAPKLLIYGNSNRPSGVPDRFSGSKSGTSASLAITGLQAEDEADYYCQSYDSSLSGPVVFGGGTKLTVL
notes: expressed as IgG
binding result [3]: no binding

B4: CV34 (antibody, V domains shown)
VH: QVQLVESGGGVVQPGRSLRLSCAASGFTFSSYAMHWVRQAPGKGLEWVAVISYDGSNKYYADSVKGRFTISRDNSKNTLYLQMNSLRAEDTAVYYCARSYGGSYYYGMDVWGQGTTVTVSS
VL: SYELTQPHSVSVATAQMARITCGGNNIGSKAVHWYQQKPGQDPVLVIYSDSNRPSGIPERFSGSNPGNTATLTISRIEAGDEADYYCQVWDSSSDHVVFGGGTKLTVL
notes: expressed as IgG
binding result [4]: no binding

B5: CV36 (antibody, V domains shown)
VH: QVQLVQSGAEVKKPGASVKVSCKASGYTFTGYYMHWVRQAPGQGLEWMGWINPNSGGTNYVQKFQGRVTMTRDTSISTAYMELNRLRSDDTAVYFCARDLTTTAGTDYYYGMDVWGQGTTVTVSS
VL: SYELTQPPSVSVSPGQTARITCSGDALPKQYAYWYQQKPGQAPVLVIYKDTERPSGIPERFSGSSSGTTVTLTISGVQAEDEADYYCQSADSSGTYMIFGTGTKVTVL
notes: expressed as IgG
binding result [5]: no binding

B6: CV37 (antibody, V domains shown)
VH: QVQLVQSGAEVKKPGASVKVSCKASGYTFTSYGISWVRQAPGQGLEWMGWISAYNGNTNYAQKLQGRVTMTTDTSTSTAYMELRSLRSDDTAVYYCARARVAYDYIWGSYRYKAFDYWGQGTLVTVSS
VL: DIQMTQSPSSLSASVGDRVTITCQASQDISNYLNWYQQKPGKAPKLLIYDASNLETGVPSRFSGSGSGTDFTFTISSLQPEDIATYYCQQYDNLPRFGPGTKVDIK
notes: expressed as IgG
binding result [6]: no binding

B7: CV39 (antibody, V domains shown)
VH: QVQLVESGGGVVQPGRSMRLSCAASGFNLSSYAMHWVRQASGKGLEWVSLISYDGSIKYYADSVKGRFTVSGDNSKNTLFLQMSSLRADDSALYYCVRGGVSGPNAFDIWGQGTTVTVSS
VL: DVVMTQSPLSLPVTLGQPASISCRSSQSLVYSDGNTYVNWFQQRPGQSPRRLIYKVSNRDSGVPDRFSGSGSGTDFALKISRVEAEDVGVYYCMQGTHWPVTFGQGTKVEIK
notes: expressed as IgG
binding result [7]: no binding

B8: CV40 (antibody, V domains shown)
VH: QVQLVQSGAEVKKPGASVKVSCKASGYTFSSYGISWVRQDPGQGLEWMGWISAYNGNTNYAQKLQGRVTMTTDTSTSTAYMELRSLRSDDTAVYYCARVGLWWLGHPDAFDIWGQGTMVTVSS
VL: DIQMTQSPSSLSASVGDRVTITCRASQGIRNDLGWYQQKPGKAPKRLIYAASSLQSGVPSRFSGSGSGTEFTLTISSLQPEDFATYYCLQHNSYPLTFGGGTKVEIK
notes: expressed as IgG
binding result [8]: no binding

B9: CV47 (antibody, V domains shown)
VH: B8 VH with S30T, D40A, N55S, L83V, A109V
VL: B8 VL
notes: expressed as IgG
binding result [9]: no binding

B10: CV41 (antibody, V domains shown)
VH: B4 VH with S99T, Y100K, Y105F, Y106A, G107P, M108F, V110Y, T116L
VL: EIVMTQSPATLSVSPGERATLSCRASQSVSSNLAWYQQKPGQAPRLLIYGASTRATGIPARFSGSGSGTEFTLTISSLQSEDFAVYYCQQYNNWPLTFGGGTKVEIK
notes: expressed as IgG
binding result [10]: no binding

B11: CV42 (antibody, V domains shown)
VH: QVQLVQSGAEVKKPGASVKVSCKASGYTFTSYGISWVRQAPGQGLEWMGWISAYNGNTNYAQKVQGRVTMTTDTSTSTAYMELRSLRSDDTAVYYCARDRGYAATFGVFDYWGQGTLVTVSS
VL: DIQMTQSPSSLSASVGDRVTITCRASQSISSYLNWYQQKPGKAPKFLIYAASSLQSGVPSRFSGSGSGTDFTLTISSLQPEDFATYYCQQTYITAFTFGPGTKVDIK
notes: expressed as IgG
binding result [11]: no binding

B12: CV44 (antibody, V domains shown)
VH: QVQLVQSGAEVKKPGASVKVSCKASGYTFTSYYMHWVRQAPGQGLEWMGIINPSGGSTSYAQKFQGRVTMTRDTSTSTVYMELSSLRSEDTAVYYCARDLTSTSSSPYSYYYGMDVWGQGTTVTVSS
VL: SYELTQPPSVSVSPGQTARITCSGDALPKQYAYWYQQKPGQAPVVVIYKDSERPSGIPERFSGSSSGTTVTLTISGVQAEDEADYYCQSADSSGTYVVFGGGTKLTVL
notes: expressed as IgG
binding result [12]: no binding

B13: CV48 (antibody, V domains shown)
VH: QVQLVQSGAEVKKPGSSVKVSCKASGGTFSSYTINWVRQAPGQGLEWMGRIIPILGIADYAQKFQGRVTITADKSTSTAYMELSSLRSEDTAVYYCARDLVEDTAMVTGAAAGTWGQGTLVTVSS
VL: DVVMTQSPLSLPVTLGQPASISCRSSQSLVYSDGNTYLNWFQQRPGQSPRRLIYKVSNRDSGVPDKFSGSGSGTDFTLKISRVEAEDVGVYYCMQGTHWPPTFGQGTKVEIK
notes: expressed as IgG
binding result [13]: no binding

B14: CV2-1 (antibody, V domains shown)
VH: B4 VH with V93I, S99P, G101S, Y106A, G107Y, M108F, V110Y, T116L
VL: EIVMTQSPATLSVSPGERATLSCRASQSVSSNLAWYQQKPGQAPRLLIYGASTRATGIPARFSGSGSGTEFTLTISSLQSEDFAVYYCQQYNNWLALTFGGGTKVEIK
notes: expressed as IgG
binding result [14]: no binding

B15: CV2-2 (antibody, V domains shown)
VH: EVQLLESGGGLAQPGGSLRLSCAASGFTFSSYAMSWVRQAPGKGLEWVSAISGSGGNTYYADSLKGRFTISRDNSKSTLYLQMNSLRAEDTAVYYCAKGPMWQWLVRLSLVGDYWGQGTLVTVSS
VL: SYVLTQPPSVSVAPGQTARITCGGNNIGSKGVHWYQQKPGQAPVLVVFDDSDRPSGIPERFSGSNSGNTATLTISRVEAGDEADYYCQVWDSTSDHPGYVFGTGTKVTVL
notes: expressed as IgG
binding result [15]: no binding

B16: CV2-3 (antibody, V domains shown)
VH: QLQLQESGPGLVKPSETLSLTCTVSGGSISSSTYYWGWIRQPPGKGLEWIGNIYYTGSTYYNPSLKSRVTISVDTSKNHFSLRLSSVTAADTAVYYCARHNRFWSEDTPFDPWGQGTLVTVSS
VL: B8 VL
notes: expressed as IgG
binding result [16]: no binding

B17: CV6 (antibody, V domains shown)
VH: QVQLVQSGAEVKKPGASVKVSCKVSGYTLTELSMHWVRQAPGKGLEWMGGFDPEDGETIYAQKFQGRVTMTEDTSTDTAYMELSSLRSEDTAVYYCATGPPYCSSTSCEHWFDPWGQGTLVTVSS
VL: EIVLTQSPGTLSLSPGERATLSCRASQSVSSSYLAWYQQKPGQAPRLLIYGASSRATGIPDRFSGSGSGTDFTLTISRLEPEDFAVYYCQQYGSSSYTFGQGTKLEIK
notes: expressed as IgG
binding result [17]: no binding

B18: CV2-5 (antibody, V domains shown)
VH: QVQLVQSGAEVKKPGSSVKVSCKASGGTFSSYAISWVRQAPGQGLEWMGGIIPIFGTTNNAQKFQGRVTLTADESTSAAYMELSSLRSEDTAVYYCARIEPYASTGYTFDYWGQGTLVTVSS
VL: B1 VL with N31S, H90Q, G97R
notes: expressed as IgG
binding result [18]: no binding
